From patent US20060246519A1, “MONOMERIC STREPTAVIDIN MUTEINS” (priority 2005, published 2006)

How the values were obtained:
[1] = Cross-linking reactions with sulfo-EGS; format: physicochemical; conditions: 10-fold molar excess sulfo-EGS, 30 min, room temperature
Description: Cross-linking of streptavidin and its muteins was carried out using sulfo-EGS [ethylene glycolbis(sulfosuccinimidyl succinate)] (Pierce) as the cross-linker. A typical reaction mixture (20 μl) contained the purified mutein (0.2 5 mg/ml) and sulfo-EGS (10-fold molar excess over the protein) in PBS. After 30 min at room temperature, the reaction was quenched with Tris-HCl (30 mM, pH 7.5). Aliquots of the cross-linking reaction samples were boiled and examined by SDS-PAGE. Lysozyme (Sigma, 0.25 mg/ml) was included in the study to help establish the optimal reaction conditions.

[2] = Dynamic light scattering (hydrodynamic radius, estimated molecular mass); format: physicochemical; conditions: for M (kDa) (Dynamic light scattering): calculated from measured RH using a protein calibration curve
Description: (§1) Molecular mass of purified streptavidin and its muteins was estimated by both gel filtration and dynamic light scattering studies. Gel filtration was performed on the Bio-Rad biologic workstation equipped with a Bio-Prep SE 100/17 column that had been calibrated with molecular mass protein markers (Bio-Rad). Molecular mass was also estimated from the hydrodynamic radius of the mutein obtained using a DynaPro MS dynamic light scattering instrument (Protein Solutions, USA) that had been calibrated with lysozyme. Protein samples (2-3 mg/ml in PBS) were passed through a 0.02 μm filter (Whatman Anodisc 13) immediately prior to measurement. The size distribution profile was analyzed using the manufacturer's Dynamics V6 software.

[3] = Degree of monomerization of non-boiled samples in SDS-PAGE / Western blot; format: physicochemical
Description: FIG. 3: Western blot analysis of cell culture supernatants from B. subtilis strains producing streptavidin muteins carrying a single mutation. 15 μl of non-boiled sample of culture supernatant was loaded to each lane. Samples on the left set were collected from B. subtilis strains cultured in super-rich medium without additional supplement of biotin. Samples on the right set were collected from B. subtilis strains cultured in super-rich medium with additional supplementation of biotin (20 μM). The blot was probed with polyclonal antibodies against streptavidin and developed using 4-chloro-1-napthol (Bio-Rad) as the colour development agent. […] M, molecular weight markers; wt, wild type streptavidin.
FIG. 4: Analysis of culture supernatants from B. subtilis strains producing streptavidin muteins carrying different combinations of mutations. All these strains were cultivated in super-rich medium supplemented with biotin (20 μM). The 15 μl of non-boiled samples of culture supernatants were loaded. FIG. 4A. Coomassie blue stained SDS-polyacrylamide gel. Bands corresponding to tetrameric and monomeric streptavidin are marked by an asterisk and an arrowhead, respectively. FIG. 4B. Western blot probed with polyclonal antibodies against streptavidin. M, molecular weight markers; wt, wild type streptavidin; AK, mutein (D61A, W 120K); M1, mutein (T76R); M2, mutein (T76R, V125R); M4, mutein (T76R, V125R, V55T, L109T); C, negative control.
Streptavidin muteins carrying a single amino-acid change at the selected site may be produced in their soluble form by B. subtilis via secretion. Analysis of non-boiled culture supernatants by SDS-PAGE offers a quick screen for the mutation effect (Qureshi, 2001). Weaker subunit interaction would result in a higher percentage of the sample in the monomeric state on the SDS-polyacrylamide gel. Since biotin can strengthen subunit interaction, samples were analyzed in the presence or absence of biotin (Laitinen, 2001; Gonzalez, 1999).
In single mutation muteins, the impact of the mutation on weakening of the subunit interaction followed the order T76R>V125R>[…]≈V55R>V55T (FIG. 3 and Table 4). The T76R mutein (referred to herein as M1) existed 100% in the monomeric state on the SDS-polyacrylamide gel even in the presence of biotin. In contrast, V55T mutation had the lowest impact, with the majority of molecules in the tetrameric state even in the absence of added biotin. Presence of biotin shifts the majority of the three remaining muteins (V125R, V125T and V55R) to the tetrameric state. Changing valine to arginine exerted greater impact than changing it to threonine. This is true for both Val-125 and Val-55.

proteinase K = assay: Proteinase K digestion of streptavidin and its muteins; format: biochemical
Description: Purified streptavidin and its muteins (30 μM monomer) were treated with proteinase K (Invitrogen, 5 μM) for 15 min at 30° C. in 50 mM Tris-HCl containing 5 mM CaCl2, pH 8.0. The reaction was stopped by precipitation with trichloroacetic acid (Ellison, 1995). Boiled samples of precipitated proteins were resolved by reducing SDS-PAGE. The same analysis was performed with streptavidin samples treated with biotin (1 mM final concentration) prior to proteinase K digestion.

[4] = test system: Biotin-conjugated bovine serum albumin; assay: Kinetic analysis by surface plasmon resonance BIAcoreX biosensor; format: binding; conditions: interaction with biotin
Description: FIG. 8: Kinetic parameters for the interaction between M4 streptavidin mutein and biotin as monitored by BIAcore biosensor. A. On-rate (ka) determination. ka is derived from association analysis. kd is the slope of the plot of In(Ro/Rt) versus (t−to) where Ro is the response at an arbitrary starting time to; Rt is the response at time t.
The kinetic parameters (both on- and off-rates for interaction with biotin) of streptavidin muteins were determined in real time using the surface plasmon resonance based BIAcoreX biosensor. Biotin-conjugated bovine serum albumin immobilized on CM5 sensor chip was used to study the reversibility of biotin binding (Qureshi, 2001).

[5] = Apparent molecular mass by gel filtration (Bio-Prep SE 100/17); format: physicochemical
Description: FIG. 6: Gel filtration profiles of streptavidin muteins. FIG. 6A. […] Bovine gamma-globulin (158 kDa), bovine serum albumin (66 kDa), ovalbumin (44 kDa), myoglobin (17 kDa) and vitamin B-12 (1.35 kDa) were used as molecular mass markers (closed circles) to calibrate the column. The logarithm of molecular mass was plotted versus Kav (Kav=(Ve−Vo)/(Vt−Vo); Ve, elution volume; Vo, void volume; Vt, bed volume). Positions of wild-type streptavidin (wt) and streptavidin muteins are represented by solid squares. FIG. 6B. Elution profile of M4 mutein (loaded at 2 mg/ml) on the gel filtration column.
as §1

[6] = independent of the presence or absence of biotin, 5 μM proteinase K, 15 min, 30° C.

Substance	Oligomeric state after cross-linking with sulfo-EGS (SDS-PAGE) [1]	RH (nm) (Dynamic light scattering) ([2]; no biotin)	M (kDa) (Dynamic light scattering) ([2]; no biotin)	Monomer (percentage of streptavidin in monomeric state) ([3]; No additional biotin)	Monomer (percentage of streptavidin in monomeric state) ([3]; With additional biotin (20 μM))	M (kDa) (Gel filtration) ([5]; no biotin)	other results
AK: prior art streptavidin mutein carrying double mutations D61A, W120K [reference compound]	cross-linking profile very similar to that of the wild type streptavidin	3.20 ± 0.23 nm	50 kDa	100%	100%	45.66 kDa	RH (nm) (Dynamic light scattering) ([2]; +biotin): 3.54 ± 0.38 nm; M (kDa) (Dynamic light scattering) ([2]; +biotin): 63 kDa; Susceptibility to proteinase K digestion (proteinase K; absence of biotin): most of it was digested; Susceptibility to proteinase K digestion (proteinase K; biotin present (1 mM)): much more resistant; ka, on-rate [4]: 1.46 ± 0.05 × 10^4 M^−1s^−1; kd, off-rate [4]: 3.59 ± 0.03 × 10^−3 s^−1; M (kDa) (Gel filtration) ([5]; +biotin): 50.12 kDa
M2: streptavidin double mutant carrying T76R and V125R mutations	migrated as monomers	1.98 ± 0.24 nm	17 kDa	100%	100%	19.95 kDa	RH (nm) (Dynamic light scattering) ([2]; +biotin): 2.09 ± 0.29 nm; M (kDa) (Dynamic light scattering) ([2]; +biotin): 18 kDa; Susceptibility to proteinase K digestion (proteinase K; [6]): completely digested; ka, on-rate [4]: 1.88 ± 0.07 × 10^4 M^−1s^−1; kd, off-rate [4]: 3.22 ± 0.01 × 10^−3 s^−1; M (kDa) (Gel filtration) ([5]; +biotin): 23.44 kDa
V55R: streptavidin mutein carrying the single mutation V55R				20%	10%		
V125R: streptavidin mutein carrying the single mutation V125R				92%	12%		
V55T: streptavidin mutein carrying the single mutation V55T				1%	0%		
M1: streptavidin mutein carrying the single mutation T76R				100%	100%		
V125T: streptavidin mutein carrying the single mutation V125T				25%	0%		
Wt: wild-type streptavidin produced by B. subtilis WB800 [reference compound]	most of these subunits were cross-linked to dimers and higher oligomers	3.69 ± 0.19 nm	69 kDa			56.23 kDa	Susceptibility to proteinase K digestion (proteinase K; [6]): converted to the core form; M (kDa) (Gel filtration) ([5]; no biotin, listed as wild-type streptavidin): 56 kDa
